Data from patent US11518805B2, “Binding inhibitor between TCTP dimer type IgE-dependent histamine releasing factor and receptor thereof, and use thereof” (EWHA UNIVERSITY—INDUSTRY COLLABORATION FOUNDATION, priority 2014, dated 2022).
“Also recorded” adds a separate entry of the source.

Experiments:
[1] = system: dTBP2 (dTCTP binding peptide 2); assay: Affinity of TCTP proteins to immobilized biotinylated dTBP2 (ELISA); conditions: biotinylated dTBP2 0.01-10 μm on streptavidin plate; protein 0.2 μg/ml; ELISA 450/570 nm
Procedure: To investigate the affinity to dTBP2 of f-TCTP, Δ-dTCTP, and Del-N11dTCTP of the present invention, biotin was conjugated to the COOH-terminus of dTBP2 known to bind to HRF, followed by purification. The purified protein was immobilized in the plastic well coated with streptavidin, to which f-TCTP, Δ-dTCTP, and Del-N11dTCTP were added. Then, the binding strength of each protein was investigated.
Particularly, 50 ? of the biotinylated dTBTP2 dissolved in a buffer (TBS [25 mM Tris, 150 mM NaCl, pH 7.2], 0.1% BSA, 0.05% Tween-20) at different concentrations of 0.01, 0.1, 1, and 10 μm was added to Reacti-Bind Streptavidin Coated Polystyrene Plates (PIERCE), followed by reaction at room temperature for 2 hours. The plate was washed with a washing buffer three times. Each of f-TCTP, Δ-dTCTP, and Del-N11dTCTP was dissolved in TBS at the concentration of 0.2 μg/ ? . 60 ? of the mixture was added to each well of the plate, followed by reaction for 1 hour. The plate was washed with a washing buffer three times. 100 ? of anti-HRF rabbit antibody (Bio-Rad) diluted in a buffer (1:2000) was added to each well of the plate, which stood at room temperature for 30 minutes. The plate was washed with a washing buffer three times and with TBS once, to which HRP-conjugated anti-rabbit antibody (1:2000) was added (100 ? /well), which stood at room temperature for 30 minutes. The plate was washed with a washing buffer three times and with TBS once, to which […] (PIERCE), the peroxydase substrate solution, was added (100 ? /well). Color development was measured at 450 nm and 570 nm using an ELISA reader (Bio-Rad), and affinity was determined by the difference.

Del-N11dTCTP [2] = target: T1, Del-N11dTCTP (Rattus norvegicus, UniProt P63029); assay: Inhibition of Del-N11dTCTP-mediated IL-8 secretion by polyclonal antibody recognizing C-terminus domain in BEAS-2B cells; assay type: cell-based; conditions: Del-N11dTCTP 1 μg/mL, 20 hours
T1 construct: made in house
T1 sequence (P63029 11-172 limits assumed): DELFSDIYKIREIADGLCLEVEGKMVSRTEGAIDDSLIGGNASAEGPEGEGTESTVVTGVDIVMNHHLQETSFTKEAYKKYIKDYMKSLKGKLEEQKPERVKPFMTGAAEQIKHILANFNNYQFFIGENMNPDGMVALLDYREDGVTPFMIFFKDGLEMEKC
Procedure: BEAS-2B cells were treated with the antibody recognizing C-terminus domain constructed in Example 8 in order to investigate whether or not the antibody could inhibit the Del-N11dTCTP-mediated IL-8 secretion.
Particularly, BEAS-2B cells were treated with Del-N11dTCTP (1 μg/mL) by the same manner as described in Experimental Example 4. At this time, the antibody diluted in PBS at the concentration of 40 nM was mixed with 1 μg/mL of Del-N11dTCTP at room temperature, followed by reaction for 10 minutes. The reaction mixture was treated to the cells above. 20 hours later, the supernatant was obtained and the separated IL-8 therein was quantified by ELISA.

BEAS-2B cells [3] = assay: IL-8 secretion by f-TCTP, Δ-dTCTP and Del-N11dTCTP in BEAS-2B cells; assay type: cell-based; conditions: protein at 1, 5 or 10 μg/ml, 24 hours, ELISA
Procedure: (§1) To investigate the IL-8 and GM-CSF secretory activity of f-TCTP, Δ-dTCTP, and Del-N11dTCTP in BEAS-2B cells, the present inventors compared the activity of f-TCTP, Δ-dTCTP, and Del-N11dTCTP by measuring the secretion of IL-8 in BEAS-2B cells.
(§2) Particularly, BEAS-2B cells were cultured in a 48-well plate until the confluency reached to 70%. Then, the cells were washed with 1% penicillin-streptomycin/BEBM (Clonetics) twice. Each recombinant protein of the Δ-dTCTP separated in Example 1 of the invention, and the f-TCTP and Del-N11dTCTP constructed by the method described in Korean Patent Application No. 2006-0007663 was added thereto at the concentration of 1 μg/ ? , 5 μg/ ? , or 10 μg/ ? 24 hours later, the supernatant was obtained and the released IL-8 and GM-CSF were quantified by ELISA.

BEAS-2B cells [4] = assay: GM-CSF secretion by f-TCTP, Δ-dTCTP and Del-N11dTCTP in BEAS-2B cells; assay type: cell-based; conditions: protein at 1, 5 or 10 μg/ml, 24 hours, ELISA
Procedure: as §1, §2

Del-N11dTCTP [5] = target: T1, Del-N11dTCTP; assay: Inhibition of Del-N11dTCTP-mediated IL-8 secretion by polyclonal antibodies recognizing FL and H2 domains in BEAS-2B cells; assay type: cell-based; set-up: dose or concentration left out as unconfirmed; conditions: 20 hours
Procedure: The inhibitory effect on Del-N11dTCTP-mediated IL-8 secretion by the antibody recognizing FL and H2 domains constructed in Example 6 of the invention was investigated by treating the antibody to BEAS-2B cells.
Particularly, BEAS-2B cells were treated with anti-FL antibody and ani-H2 antibody at different concentrations. Then, Del-N11dTCTP-induced IL-8 secretion was compared. The BEAS-2B cells cultured in a 48-well plate were washed with 1% penicillin-streptomycin/BEBM (Lonza) twice, followed by serum starvation for 7 hours. The antibody diluted in PBS at the concentrations of 1 and 10 ng/ml was reacted with 70 μM Del-N11dTCTP at 37° C. for 2 hours. The reaction mixture was treated to the cells above. 20 hours later, the supernatant was obtained and the released IL-8 therein was quantified by ELISA.

- IL-8 secretion, PBS together with Del-N11dTCTP (Del-N11dTCTP [2]): increased
- IL-8 secretion, Del-N11dTCTP alone (Del-N11dTCTP [5]): increased
B1: Del-N11dTCTP: dimer form of amino terminal-deleted TCTP, active HRF form (protein, UniProt P13693 12-172, looked up, fragment)
chain: EMFSDIYKIREIADGLCLEVEGKMVSRTEGNIDDSLIGGNASAEGPEGEGTESTVITGVDIVMNHHLQETSFTKEAYKKYIKDYMKSIKGKLEEQRPERVKPFMTGAAEQIKHILANFKNYQFFIGENMNPDGMVALLDYREDGVTPYMIFFKDGLEMEKC
modifications: dimer
- affinity to dTBP2 [1]: higher affinity to dTBP2 than f-TCTP or Δ-dTCTP; also recorded: higher dTBP2 affinity than f-TCTP and Δ-dTCTP
- secretion of IL-8 (BEAS-2B cells [3]): more than f-TCTP and Δ-dTCTP could do; also recorded: superior to f-TCTP and Δ-dTCTP
- secretion of GM-CSF (BEAS-2B cells [4]): more than f-TCTP and Δ-dTCTP could do; also recorded: superior to f-TCTP and Δ-dTCTP
